{"source": "the supplement of paper PMC7877785", "test": "self-splicing fitness, log relative to wild type (ln ratio); higher = more splicing; Tetrahymena group I intron in knt gene, E. coli kanamycin selection, DiMSum; sequences stand for … in CUCUCU…GGAGGGAAAAGUUAUCAGGCAUGCACCUGGUAGCUAGUCUUUAAACCAAUAGAUUGCAUCGGUUUAAAAGGCAAGACCGUCAAAUUGCGGGAAAGGGGUCAACAGCCGUUCAGUACCAAGUCUCAGGGGAAACUUUGAGAUGGCCUUGCAAAGGGUAUGGUAAUAAGCUGACGGACAUGGUCCUAACCACGCAGCCAAGUCCUAAGUCAACAGAUCUUCUGUUGAUAUGGAUGCAGUUCACAGACUAAAUGUCGGUCGGGGAAGAUGUAUUCUUCUCAUAAGAUAUAGUCGGACCUCUCCUUAAUGGGAGCUAGCGGAUGAAGUGAUGCAACACUGGAGCCGCUGGGAACUAAUUUGUAUGCGAAAGUAUAUUGAUUAGUUUUGGAGUACUCGUGGUCG", "in_short": "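The eight P1ex-region nucleotides of an intron in the knt kanamycin-resistance gene on pET-22b(+) were all randomised and the library put into E. coli BL21(DE3). Six replicate transformations were grown overnight at 37°C or 30°C on LB agar with or without 25 μg/mL kanamycin, together with 100 μg/mL carbenicillin, 50 μM IPTG and 0.2% rhamnose. Colonies were pooled and amplicon-sequenced on an Illumina HiSeq 2500. Fitness from DiMSum is the error-weighted combination of wild-type-normalised replicate fold changes, kanamycin over none.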", "note": "± gives the uncertainty stated by the source."}
{"sequence": "ACAUAGCAAUAUUACGCAAG", "values": [{"measurement": "self-splicing fitness (ln)", "setting": "30 °C", "result": "-1.9 ± 0.12"}, {"measurement": "self-splicing fitness (ln)", "setting": "37 °C", "result": "-1.25 ± 0.2"}]}
{"sequence": "AGUUAGCAAUAUUACGUCAC", "values": [{"measurement": "self-splicing fitness (ln)", "setting": "37 °C", "result": "-0.825 ± 0.31"}]}
{"sequence": "ACGGAGCAAUAUUACGCUCA", "values": [{"measurement": "self-splicing fitness (ln)", "setting": "30 °C", "result": "-1.04 ± 0.19"}, {"measurement": "self-splicing fitness (ln)", "setting": "37 °C", "result": "-0.0662 ± 0.3"}]}
{"sequence": "ACAGAGCAAUAUUACGGGUU", "values": [{"measurement": "self-splicing fitness (ln)", "setting": "30 °C", "result": "-2.43 ± 0.1"}, {"measurement": "self-splicing fitness (ln)", "setting": "37 °C", "result": "-3.08 ± 0.18"}]}
{"sequence": "UUAGAGCAAUAUUACGGCUC", "values": [{"measurement": "self-splicing fitness (ln)", "setting": "30 °C", "result": "-3.52 ± 0.35"}, {"measurement": "self-splicing fitness (ln)", "setting": "37 °C", "result": "-1.68 ± 0.28"}]}
{"sequence": "UACCAGCAAUAUUACGCCGC", "values": [{"measurement": "self-splicing fitness (ln)", "setting": "30 °C", "result": "-2.89 ± 0.38"}, {"measurement": "self-splicing fitness (ln)", "setting": "37 °C", "result": "-2.37 ± 0.35"}]}
{"sequence": "GGACAGCAAUAUUACGCCGA", "values": [{"measurement": "self-splicing fitness (ln)", "setting": "30 °C", "result": "-0.609 ± 0.11"}, {"measurement": "self-splicing fitness (ln)", "setting": "37 °C", "result": "-0.306 ± 0.12"}]}
{"sequence": "CAUCAGCAAUAUUACGGACG", "values": [{"measurement": "self-splicing fitness (ln)", "setting": "30 °C", "result": "-0.594 ± 0.053"}, {"measurement": "self-splicing fitness (ln)", "setting": "37 °C", "result": "-0.172 ± 0.08"}]}
{"sequence": "GAAGAGCAAUAUUACGUCUU", "values": [{"measurement": "self-splicing fitness (ln)", "setting": "30 °C", "result": "-4.83 ± 0.19"}, {"measurement": "self-splicing fitness (ln)", "setting": "37 °C", "result": "-2.4 ± 0.081"}]}
{"sequence": "AGAGAGCAAUAUUACGUACU", "values": [{"measurement": "self-splicing fitness (ln)", "setting": "30 °C", "result": "-1.2 ± 0.13"}, {"measurement": "self-splicing fitness (ln)", "setting": "37 °C", "result": "-1 ± 0.15"}]}
{"sequence": "GAAUAGCAAUAUUACGAAGC", "values": [{"measurement": "self-splicing fitness (ln)", "setting": "30 °C", "result": "-3.17 ± 0.24"}, {"measurement": "self-splicing fitness (ln)", "setting": "37 °C", "result": "-2.54 ± 0.22"}]}
{"sequence": "AAUGAGCAAUAUUACGACCG", "values": [{"measurement": "self-splicing fitness (ln)", "setting": "30 °C", "result": "-3.45 ± 0.36"}, {"measurement": "self-splicing fitness (ln)", "setting": "37 °C", "result": "-1.24 ± 0.34"}]}
{"sequence": "AUUAAGCAAUAUUACGUAUA", "values": [{"measurement": "self-splicing fitness (ln)", "setting": "30 °C", "result": "-1.48 ± 0.16"}, {"measurement": "self-splicing fitness (ln)", "setting": "37 °C", "result": "-1.35 ± 0.14"}]}
{"sequence": "UUACAGCAAUAUUACGGACG", "values": [{"measurement": "self-splicing fitness (ln)", "setting": "30 °C", "result": "-0.683 ± 0.079"}, {"measurement": "self-splicing fitness (ln)", "setting": "37 °C", "result": "-0.00562 ± 0.096"}]}
{"sequence": "GUGAAGCAAUAUUACGCCUC", "values": [{"measurement": "self-splicing fitness (ln)", "setting": "30 °C", "result": "-1.22 ± 0.25"}, {"measurement": "self-splicing fitness (ln)", "setting": "37 °C", "result": "-1.09 ± 0.48"}]}
{"sequence": "CGUGAGCAAUAUUACGAGAC", "values": [{"measurement": "self-splicing fitness (ln)", "setting": "37 °C", "result": "-0.958 ± 0.35"}]}
{"sequence": "GCCUAGCAAUAUUACGACGU", "values": [{"measurement": "self-splicing fitness (ln)", "setting": "30 °C", "result": "-0.19 ± 0.058"}, {"measurement": "self-splicing fitness (ln)", "setting": "37 °C", "result": "0.0659 ± 0.07"}]}
{"sequence": "AACCAGCAAUAUUACGCCCG", "values": [{"measurement": "self-splicing fitness (ln)", "setting": "30 °C", "result": "-0.353 ± 0.1"}, {"measurement": "self-splicing fitness (ln)", "setting": "37 °C", "result": "-0.271 ± 0.17"}]}
{"sequence": "UUUAAGCAAUAUUACGUCUU", "values": [{"measurement": "self-splicing fitness (ln)", "setting": "30 °C", "result": "-2.57 ± 0.15"}, {"measurement": "self-splicing fitness (ln)", "setting": "37 °C", "result": "-1.81 ± 0.16"}]}
{"sequence": "GCCCAGCAAUAUUACGGCGC", "values": [{"measurement": "self-splicing fitness (ln)", "setting": "30 °C", "result": "-3.02 ± 0.17"}, {"measurement": "self-splicing fitness (ln)", "setting": "37 °C", "result": "-1.87 ± 0.16"}]}
{"sequence": "UGCUAGCAAUAUUACGUUAU", "values": [{"measurement": "self-splicing fitness (ln)", "setting": "30 °C", "result": "-2.22 ± 0.16"}, {"measurement": "self-splicing fitness (ln)", "setting": "37 °C", "result": "-2.33 ± 0.23"}]}
{"sequence": "GAAAAGCAAUAUUACGGCUA", "values": [{"measurement": "self-splicing fitness (ln)", "setting": "30 °C", "result": "-0.156 ± 0.082"}, {"measurement": "self-splicing fitness (ln)", "setting": "37 °C", "result": "0.451 ± 0.082"}]}
{"sequence": "ACCUAGCAAUAUUACGAGGG", "values": [{"measurement": "self-splicing fitness (ln)", "setting": "30 °C", "result": "-3.45 ± 0.17"}, {"measurement": "self-splicing fitness (ln)", "setting": "37 °C", "result": "-1.4 ± 0.12"}]}
{"sequence": "GAGGAGCAAUAUUACGUACA", "values": [{"measurement": "self-splicing fitness (ln)", "setting": "30 °C", "result": "-3.14 ± 0.32"}, {"measurement": "self-splicing fitness (ln)", "setting": "37 °C", "result": "-0.612 ± 0.2"}]}
{"sequence": "GUAUAGCAAUAUUACGGGUA", "values": [{"measurement": "self-splicing fitness (ln)", "setting": "30 °C", "result": "-2.56 ± 0.27"}, {"measurement": "self-splicing fitness (ln)", "setting": "37 °C", "result": "-1.28 ± 0.19"}]}
{"sequence": "AAGGAGCAAUAUUACGACCG", "values": [{"measurement": "self-splicing fitness (ln)", "setting": "30 °C", "result": "-2.16 ± 0.29"}]}
{"sequence": "UGCAAGCAAUAUUACGUCCU", "values": [{"measurement": "self-splicing fitness (ln)", "setting": "30 °C", "result": "-0.656 ± 0.094"}, {"measurement": "self-splicing fitness (ln)", "setting": "37 °C", "result": "-0.908 ± 0.098"}]}
{"sequence": "CCCGAGCAAUAUUACGCGGA", "values": [{"measurement": "self-splicing fitness (ln)", "setting": "30 °C", "result": "-3.21 ± 0.28"}, {"measurement": "self-splicing fitness (ln)", "setting": "37 °C", "result": "-2.23 ± 0.2"}]}
{"sequence": "CGAGAGCAAUAUUACGUAAC", "values": [{"measurement": "self-splicing fitness (ln)", "setting": "37 °C", "result": "-1.98 ± 0.34"}]}
{"sequence": "GUCCAGCAAUAUUACGGCGA", "values": [{"measurement": "self-splicing fitness (ln)", "setting": "30 °C", "result": "-1.32 ± 0.12"}, {"measurement": "self-splicing fitness (ln)", "setting": "37 °C", "result": "-0.997 ± 0.14"}]}
{"sequence": "AGACAGCAAUAUUACGCCGU", "values": [{"measurement": "self-splicing fitness (ln)", "setting": "30 °C", "result": "-3.43 ± 0.21"}, {"measurement": "self-splicing fitness (ln)", "setting": "37 °C", "result": "-2.91 ± 0.29"}]}
{"sequence": "GGCGAGCAAUAUUACGGAGG", "values": [{"measurement": "self-splicing fitness (ln)", "setting": "30 °C", "result": "-2.52 ± 0.34"}, {"measurement": "self-splicing fitness (ln)", "setting": "37 °C", "result": "-1.9 ± 0.45"}]}
{"sequence": "GGUAAGCAAUAUUACGUACA", "values": [{"measurement": "self-splicing fitness (ln)", "setting": "30 °C", "result": "-0.648 ± 0.1"}, {"measurement": "self-splicing fitness (ln)", "setting": "37 °C", "result": "0.294 ± 0.14"}]}
{"sequence": "CCACAGCAAUAUUACGGGUG", "values": [{"measurement": "self-splicing fitness (ln)", "setting": "30 °C", "result": "-2.04 ± 0.05"}, {"measurement": "self-splicing fitness (ln)", "setting": "37 °C", "result": "-0.716 ± 0.059"}]}
{"sequence": "CUCAAGCAAUAUUACGAGUC", "values": [{"measurement": "self-splicing fitness (ln)", "setting": "30 °C", "result": "-3.49 ± 0.21"}, {"measurement": "self-splicing fitness (ln)", "setting": "37 °C", "result": "-3.23 ± 0.47"}]}
{"sequence": "CAUGAGCAAUAUUACGAGGU", "values": [{"measurement": "self-splicing fitness (ln)", "setting": "30 °C", "result": "-3.26 ± 0.33"}, {"measurement": "self-splicing fitness (ln)", "setting": "37 °C", "result": "-3.11 ± 0.4"}]}
{"sequence": "UCUUAGCAAUAUUACGGUAA", "values": [{"measurement": "self-splicing fitness (ln)", "setting": "30 °C", "result": "-2.62 ± 0.23"}, {"measurement": "self-splicing fitness (ln)", "setting": "37 °C", "result": "-1.7 ± 0.32"}]}
{"sequence": "GUAAAGCAAUAUUACGCGAG", "values": [{"measurement": "self-splicing fitness (ln)", "setting": "30 °C", "result": "-0.869 ± 0.068"}, {"measurement": "self-splicing fitness (ln)", "setting": "37 °C", "result": "-0.158 ± 0.091"}]}
{"sequence": "CAUGAGCAAUAUUACGACCU", "values": [{"measurement": "self-splicing fitness (ln)", "setting": "30 °C", "result": "-2.47 ± 0.29"}, {"measurement": "self-splicing fitness (ln)", "setting": "37 °C", "result": "-0.931 ± 0.26"}]}
